Reference: paper doi:10.1101/2024.09.21.614250 (bioRxiv, 2024)
Each block holds one binder with its values, some of them ahead of it.

Tests used:
[1] = target: T1, Shp2^tSH2 (aa5-218), C-terminally SNAP-tag-fused, SC505-labeled (human, UniProt Q06124 5-218, Snap-Cell505 star (SC505) label on the SNAP-tag); assay: FRET or BRET
T1 sequence: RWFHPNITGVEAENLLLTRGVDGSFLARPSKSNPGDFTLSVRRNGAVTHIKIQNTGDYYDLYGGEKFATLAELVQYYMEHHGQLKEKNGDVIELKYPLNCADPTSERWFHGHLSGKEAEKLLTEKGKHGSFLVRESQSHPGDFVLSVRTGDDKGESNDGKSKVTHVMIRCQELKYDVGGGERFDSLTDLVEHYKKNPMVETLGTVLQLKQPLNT

[2] = target: T2, Shp1^tSH2 (aa4-215), C-terminally SNAP-tag-fused, SC505-labeled (human, UniProt P29350 4-215, Snap-Cell505 star (SC505) label on the SNAP-tag); assay: FRET or BRET
T2 sequence: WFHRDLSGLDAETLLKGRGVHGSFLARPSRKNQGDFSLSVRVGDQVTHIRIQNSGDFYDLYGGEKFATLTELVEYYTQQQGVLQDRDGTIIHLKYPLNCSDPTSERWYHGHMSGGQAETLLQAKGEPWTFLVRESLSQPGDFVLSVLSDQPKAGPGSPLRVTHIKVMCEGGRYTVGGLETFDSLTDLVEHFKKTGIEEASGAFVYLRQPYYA

Kd [1]: 220 nM
binding result [2]: binds
B1: His-tagged moPD1 ICD WT, phosphorylated by Lck (domain or fragment)
chain: CSTSMSEARGAGSKDDTLKEEPSAAPVPSVAYEELDFQGREKTPELPTACVHTEYATIVFTEGLGASAMGRRGSADGLQGPRPPRHEDGHCSWPL
modifications: phosphorylated by Lck on the LUV after ATP addition (sites not stated for this assay)

Kd [1]: 76 nM
binding result [2]: binds
B2: His-tagged huPD1 ICD WT, phosphorylated by Lck (domain or fragment)
chain: CSRAARGTIGARRTGQPLKEDPSAVPVFSVDYGELDFQWREKTPEPPVPCVPEQTEYATIVFPSGMGTSSPARRGSADGPRSAQPLRPEDGHCSWPL
modifications: phosphorylated by Lck on the LUV after ATP addition (sites not stated for this assay)
